From FireProtDB come the findings set out here.

B1: Alpha-lactalbumin, P00712 (parent)
chain: MMSFVSLLLVGILFHATQAEQLTKCEVFQKLKDLKDYGGVSLPEWVCTAFHTSGYDTQAIVQNNDSTEYGLFQINNKIWCKDDQNPHSRNICNISCDKFLDDDLTDDIVCAKKILDKVGINYWLAHKALCSEKLDQWLCEKL
B2: Glutathione S-transferase Mu 1, P04905 (parent)
chain: MPMILGYWNVRGLTHPIRLLLEYTDSSYEEKRYAMGDAPDYDRSQWLNEKFKLGLDFPNLPYLIDGSRKITQSNAIMRYLARKHHLCGETEEERIRADIVENQVMDNRMQLIMLCYNPDFEKQKPEFLKTIPEKMKLYSEFLGKRPWFAGDKVTYVDFLAYDILDQYHIFEPKCLDAFPNLKDFLARFEGLKKISAYMKSSRYLSTPIFSKLAQWSNK
B3: Elongation factor Ts, P43895 (parent)
chain: MSQMELIKKLREATGAGMMDVKRALEDAGWDEEKAVQLLRERGAMKAAKKADREAREGIIGHYIHHNQRVGVLVELNCETDFVARNELFQNLAKDLAMHIAMMNPRYVSAEEIPAEELEKERQIYIQAALNEGKPQQIAEKIAEGRLKKYLEEVVLLEQPFVKDDKVKVKELIQQAIAKIGENIVVRRFCRFELGA
B4: N-(5'-phosphoribosyl)anthranilate isomerase, P00912 (parent)
chain: MSVINFTGSSGPLVKVCGLQSTEAAECALDSDADLLGIICVPNRKRTIDPVIARKISSLVKAYKNSSGTPKYLVGVFRNQPKEDVLALVNDYGIDIVQLHGDESWQEYQEFLGLPVIKRLVFPKDCNILLSAASQKPHSFIPLFDSEAGGTGELLDWNSISDWVGRQESPESLHFMLAGGLTPENVGDALRLNGVIGVDVSGGVETNGVKDSNKIANFVKNAKK
B5: DNA-Binding protein, P69542 (parent)
chain: MIKVEIKPSQAQFTTRSGVSRQGKPYSLNEQLCYVDLGNEYPVLVKITLDEGQPAYAPGLYTVHLSSFKVGQFGSLMIDRLRLVPAK
B6: Phosphoglycerate kinase 1, P00558 (parent)
chain: MSLSNKLTLDKLDVKGKRVVMRVDFNVPMKNNQITNNQRIKAAVPSIKFCLDNGAKSVVLMSHLGRPDGVPMPDKYSLEPVAVELKSLLGKDVLFLKDCVGPEVEKACANPAAGSVILLENLRFHVEEEGKGKDASGNKVKAEPAKIEAFRASLSKLGDVYVNDAFGTAHRAHSSMVGVNLPQKAGGFLMKKELNYFAKALESPERPFLAILGGAKVADKIQLINNMLDKVNEMIIGGGMAFTFLKVLNNMEIGTSLFDEEGAKIVKDLMSKAEKNGVKITLPVDFVTADKFDENAKTGQATVASGIPAGWMGLDCGPESSKKYAEAVTRAKQIVWNGPVGVFEWEAFARGTKALMDEVVKATSRGCITIIGGGDTATCCAKWNTEDKVSHVSTGGGASLELLEGKVLPGVDALSNI
B7: DNA-binding transcriptional dual regulator CRP, P0ACJ8 (parent)
chain: MVLGKPQTDPTLEWFLSHCHIHKYPSKSTLIHQGEKAETLYYIVKGSVAVLIKDEEGKEMILSYLNQGDFIGELGLFEEGQERSAWVRAKTACEVAEISYKKFRQLIQVNPDILMRLSAQMARRLQVTSEKVGNLAFLDVTGRIAQTLLNLAKQPDAMTHPDGMQIKITRQEIGQIVGCSRETVGRILKMLEDQNLISAHGKTIVVYGTR

The variants in one data set derive from B1. The note with it: Capra hircus; pH 7; 25 °C; Thermal; CD; sodium cacodylate 50 mM; CaCl2 1 mM; structure 1HFY; whole UniProt chain shown.
T48I: the “ddG of mutation (higher = less stable)” value was -1.37 kcal/mol.

Variants of B2 are the subject of a further data set. Conditions: Rattus norvegicus; pH 6.5; 20 °C; Urea; CD; NaH2PO4 20 mM; NaCl 0.1 M; reversible: Yes; structure 1GSB; whole UniProt chain shown.
As to F57S R82A, the denaturant m value turned out to be 2 kcal/mol/M, the “denaturant midpoint (higher = more stable)” value (“denaturant midpoint” below) came to 4.6 M and the unfolding free energy worked out at 10.1 kcal/mol.

In the next data set the parent is B3. Conditions: Thermus thermophilus (strain ATCC 27634 / DSM 579 / HB8); pH 7; Thermal; CD; Phosphate 10 mM; reversible: No; structure 1TFE; whole UniProt chain shown.
In general, Tm refers to the temperature at the midpoint of the melting transition. As for C190A, the Tm was determined as 105 °C and the “change of melting temperature, mutant - wild type (higher = more stable)” value was -10 °C.

In a further data set the parent is B4. Conditions: Saccharomyces cerevisiae (strain ATCC 204508 / S288c); pH 6.5; 23 °C; GdnHCl; CD; Potassium phosphate 0.05 M; reversible: yes; whole UniProt chain shown.
With S212C, the “ddG of mutation (higher = less stable)” value was found to be 1 kcal/mol.

In a further data set the parent is B5. The note with it: Enterobacteria phage fd; pH 7; 25 °C; GdnHCl; CD; MOPS 50 mM; NaCl 100 mM; reversible: yes; structure 1VQB; whole UniProt chain shown.
With T48V, the unfolding free energy was 0 kcal/mol.

As to K24V, the unfolding free energy came out at 0.8 kcal/mol. With T62V, the unfolding free energy worked out at 1.3 kcal/mol. The same measure, in the same setting: the figure for L32W is 2.8 kcal/mol; for E30M it is 0.6 kcal/mol; for K69M it is 0.1 kcal/mol.

Variants of B6 are the subject of a further data set. Conditions: Homo sapiens; pH 7.4; 25 °C; Urea; CD; HEPES 20mM; NaCl 200 mM; transition: 2; reversible: Yes; structure 2WZB; whole UniProt chain shown.
For E252A, the “ddG of mutation (higher = less stable)” value was 0.7 kcal/mol, the denaturant m value worked out at 3.2 kcal/mol/M, the “denaturant midpoint” value turned out to be 2.37 M and the unfolding free energy is 7.6 kcal/mol. With T378P, the “ddG of mutation (higher = less stable)” value amounted to 4.8 kcal/mol, the denaturant m value was 1.5 kcal/mol/M, the “denaturant midpoint” value came out at 2.28 M and the unfolding free energy was determined as 3.5 kcal/mol.

Variants of B7 are the subject of another data set. The note with it: Escherichia coli (strain K12); pH 7.9; 20 °C; Thermal; CD; Tris-HCl 50 mM; KCl 100 mM; reversible: yes; structure 1G6N; whole UniProt chain shown.
As to S129A, the “ddG of mutation (higher = less stable)” value came out at 0.26 kcal/mol and the unfolding free energy amounted to 7.06 kcal/mol.
